B1: U6.mir-675-2.1.1: mir-675 construct with modified 5' and 3' flanking sequences (nucleic acid)
DNA: TCTAGAGATCCGACGCCGCCATCTCTAGGCCCGCGCCGGCCCCCTCGCACAGACTTGTGGGAGAAGCTCGGCTACTCCCCTGCCCCGGTTAATTTGCATATAATATTTCCTAGTAACTATAGAGGCTTAATGTGCGATAAAAGACAGATAATCTGTTCTTTTTAATACTAGCTACATTTTACATGATAGGCTTGGATTTCTATAAGAGATACAAATACTAAATTATTATTTTAAAAAACAGCACAAAAGGAAACTCACCCTAACTGTAAAGTAATTGTGTGTTTTGAGACTATAAATATCCCTTGGAGAAAAGCCTTGTTTGCCCCAGGGTCTGGTGCGGAGAGGGCCCACAGTGGACTTGGTGACGCTGTATGCCCTCACCGCTCAGCCCCTGGGGATAACTCCTAATCACACTTTTTT
B2: U6.mir-675F2: U6 mir-675 construct with H1.mir-675-like flanks and cPPT/CTS sequence (nucleic acid)
DNA: TTTTAAAAGAAAAGGGGGGATTGGGGGGTACAGTGCAGGGGAAAGAATAGTAGACATAATAGCAACAGACATACAAACTAAAGAATTACAAAAACAAATTACAAAAATTCAAAATTTTTCTAGAGATCCGACGCCGCCATCTCTAGGCCCGCGCCGGCCCCCTCGCACAGACTTGTGGGAGAAGCTCGGCTACTCCCCTGCCCCGGTTAATTTGCATATAATATTTCCTAGTAACTATAGAGGCTTAATGTGCGATAAAAGACAGATAATCTGTTCTTTTTAATACTAGCTACATTTTACATGATAGGCTTGGATTTCTATAAGAGATACAAATACTAAATTATTATTTTAAAAAACAGCACAAAAGGAAACTCACCCTAACTGTAAAGTAATTGTGTGTTTTGAGACTATAAATATCCCTTGGAGAAAAGCCTTGTTTGCCCCAGGGTCTGGTGCGGAGAGGGCCCACAGTGGACTTGGTGACGCTGTATGCCCTCACCGCTCAGCCCCTGGGGAATTCTTCGATTCTGCTTTTTT

Legend:
Type in all cases: cell-based, human
DUX4 protein = test: Western blot of V5-tagged DUX4 protein in co-transfected HEK293 cells; conditions: CMV.DUX4-FL/CMV.eGFP, HEK293, molar ratio 1 to 3, eGFP normalizer, relative to U6-milacZ, N = 3-8
Procedure: Western Blots. […] 50 mM Tris (pH 7.5-8.0), 150 mM NaCl, 0.1% (v/v) SDS, 0.5% (v/v) deoxycholate, 1% (v/v) triton X-100 (Fisher Scientific) and 1 tablet of protease inhibitor (ThermoFisher Scientific) per 10 mL of buffer. The total protein extract was quantified using the DC Protein Assay (Bio-Rad). Twenty microgram samples were separated on 12% SDS-PAGE, transferred to nitrocellulose membrane, using the wet transfer system, and incubated with the following antibodies: mouse monoclonal antibody to V5 (horseradish peroxidase [HRP]-coupled) [1:5,000 in 5% milk TBST buffer (150 mM NaCl, 50 mM Tris-HCl pH 7.4 and 0.1% Tween 20 (Fisher Scientific)), R961-25; Invitrogen); rabbit polyclonal eGFP antibody (1:50,000 in 3% BSA PBS, ab290; Abcam); mouse monoclonal β-actin antibodies (1:60,000; Sigma, St Louis, MO); overnight at 4° C. When using the eGFP antibody, membranes were blocked 30 mins with 3% BSA PBS prior to blotting. eGFP-probed blots were washed five times, 5 min each with 0.5% Tween 20 (Fisher Scientific) in TBST buffer, and then incubated with HRP-coupled goat anti-rabbit secondary antibody (1:250,000 in 3% BSA PBS, 115-035-144; Jackson ImmunoResearch) for 2 hours at room temperature. V5-probed blots were washed five times, 5 min each with 0.1% Tween 20 in TBST buffer. Following washes, blots were developed using Immobilon Western HRP substrate (Millipore) and exposed to film. DUX4.V5, and eGFP quantification was assessed using ImageJ.

mir-675-5p [1] = test: TaqMan QRT-PCR of mature mir-675-5p from transfected constructs in HEK293 cells; conditions: HEK293, 24 h post-transfection; for mir-675-5p levels compared to U6.mir-675: 23 mer mature mir-675-5p
Text: RNA Extraction. RNA from HEK293 cells was extracted for Northern blot assay and QPCR. The miRVANA miRNA isolation kit (ThermoFisher Scientific) was used according to manufacturer's directions to extract total RNA encompassing small RNAs, such as miRNAs. To extract RNA from C57BL/6 skeletal muscles, cryopreserved muscles were crushed under suboptimal temperatures using liquid nitrogen and using mortar and pestle. Crushed muscles were then lysed using […] of miRVANA miRNA isolation kit lysis buffer, a TissueLyser and 1.0 mm zirconia beads (Biospec). Muscle was homogenized at 30 Hz for 30 sec with 10 sec rest. This was repeated 3 times.
TaqMan Gene Expression Assay. QRT-PCR was carried out to quantify the expression of pri-mir-675, mir-675-5p and mi405 using TaqMan probes (ThermoFisher Scientific). Experiments were started by eliminating genomic DNA from the RNA preparations, and then cDNA was generated using the High-Capacity cDNA Reverse Transcription Kit (Applied Biosystems) following manufacturer's instructions. Within the same cDNA reaction, 1×RT random hexamer primers were used to generate the cDNA for RPL13A, used as a reference gene, and for pri-mir-675. To generate the cDNA for mir-675, the RT mir-675 reverse primer provided by ThermoFisher Scientific was used. For mi405, the mi405 qPCR protocol was done as it was previously described [Wallace et al., Mol. Ther. Methods Clin. Dev. 8: 121-30 (2018)]. To quantify mir-675 and mi405 levels, RNA was extracted using the total RNA protocol for the mirVana miRNA Isolation Kit (Ambion) from HEK293 cells. cDNA was generated using the High-Capacity cDNA Reverse Transcription Kit (Applied Biosystems) using a mix of random hexamer primers and specific reverse primer for pri-mir-675 and mir-675-5p. For mi405, 200 nM of the stem-loop forming primer (5′-[…]-3′) (SEQ ID NO: 144) was also used for the RT step. A custom TaqMan assay (Applied Biosystems) including 1.5 μM of Forward primer (5′-[…]-3′) (SEQ ID NO: 145), 0.7 μM of Reverse primer (5′-GTGCAGGGTCCGAGGT-3′) (SEQ ID NO: 146), and 0.2 μM of mi405 probe (5′-6FAM-ATACGACGTCCAGGAT-3′) (SEQ ID NO: 147) was then run using the CFX Connect Real Time system apparatus (Bio-Rad). RPL13A (Mm02526700_g1; Applied Biosystems) served as the reference gene. The TaqMan gene expression assay consisted of using the TaqMan Gene Expression Master mix and TaqMan probes purchased from ThermoFisher Scientific. 1× of probe was mixed with 1× of the TaqMan Gene Expression Master mix (ThermoFisher Scientific), and with 20 ng of cDNA. The mir-675- and mi405-specific primers and probes were designed to quantify only the mir-675-5p and mi405 mature sequence (see TaqMan Gene Expression Master mix protocol).

mir-675-5p [2] = test: ddPCR of all mature mir-675-5p sequences (TaqMan Advanced miRNA cDNA synthesis) in HEK293 cells
Procedure: Digital Droplet PCR (ddPCR). For mir-675 and mi405 constructs, RNA extraction was carried out as described for QPCR above. For cDNA synthesis, the TaqMan advanced cDNA synthesis kit (Thermo Fisher) was used and cDNA was prepared by following manufacturer's instructions. ddPCR was carried out using 1× ddPCR Supermix for probes (No dUTP) (Bio-Rad), 1× commercially available mir-675 advanced TaqMan probe, or a custom made mi405 advanced TaqMan probe (ThermoFisher) and 50 ng of cDNA. For DUX4 cDNA synthesis, the High-Capacity cDNA Reverse Transcription Kit (Applied Biosystems) was used according to manufacturer's instructions. Within the same cDNA reaction, 1×RT random hexamer primers and 25 pmoles of the Oligo(dT) primer were used to generate cDNA for DUX4 and DUX4-responsive biomarkers and for mouse Rpl13A, used as a reference gene. To quantify DUX4, the ddPCR reaction mixture (20 μL) contained 1× ddPCR Evagreen Supermix (Bio-Rad), 1 μM of forward and reverse DUX4 primers (Sharma et al., J Genet Syndr Gene Ther 2016 August; 7(4):303. doi: 10.4172/2157-7412.1000303. Epub 2016 Aug. 8), and 50 ng of cDNA. To quantify Rpl13A and DUX4-responsive biomarkers (Trim36 and Wfdc3), the 1× ddPCR Supermix for probes (No dUTP) and TaqMan specific probes were used for each of the genes. Droplets were generated using the Automatic Droplet generator QX200 AutoDG (Bio-Rad), the reactions were amplified in a C1000 Touch™ Thermal Cycler with 96-Deep Well Reaction Module (Bio-Rad). Cycling conditions were set up following the QX200 ddPCR Evagreen Supermix protocol. All assays are compatible with an annealing temperature of 58° C. Droplets were then read using the QX200 droplet reader (Bio-Rad). Finally, data were analyzed using the QuantaSoft analysis software (Bio-Rad). For quantification, each reaction of 20 μL was estimated to give at least 10,000 acceptable droplets.
In order to quantify the level of all these mature sequences, the TaqMan advanced miRNA cDNA synthesis method that uses universal reverse transcription (RT) chemistry to synthesize cDNA templates that can be quantified using the TaqMan Advanced miRNA probes was used. In this method, most of the processed mature miRNA sequences were quantified.

mir-675-5p [3] = test: Small-transcript northern blot of mir-675 processing in HEK293 cells; conditions: HEK293; anti-mir-675-5p biotinylated probe
Text: Small-Transcript Northern Blots. […] (SEQ ID NO: 148)).

Molecule | Average inhibition efficiency (%) of DUX4 protein levels (DUX4 protein) | Average inhibition efficiency (%) of DUX4 protein levels (DUX4 protein; listed as U6-mir-675-2.1.1) | mir-675-5p levels compared to U6.mir-675 (mir-675-5p [1]) [%] | ratio of mir-675-5p/pri-mir-675 compared to U6.mir-675 (mir-675-5p [1]) [%] | fold change of all mature mir-675-5p sequences compared to U6.mir-675 (mir-675-5p [2]) [%] | mature mir-675-5p bands on northern blot (mir-675-5p [3])
B1 | 83±3% | 83 ± 3 (N = 3) % | 282±34 | 207±38 | 213±51 | detectable mir-675 mature sequences
B2 | 79 ± 6 (N = 3) % | – | 882±108 | 918±169 | 181±34 | detectable mir-675 mature sequences
